B1: GpH7-B3 variant Y296_09D/GpL16-k0 (antibody, human IgG1, kappa)
heavy: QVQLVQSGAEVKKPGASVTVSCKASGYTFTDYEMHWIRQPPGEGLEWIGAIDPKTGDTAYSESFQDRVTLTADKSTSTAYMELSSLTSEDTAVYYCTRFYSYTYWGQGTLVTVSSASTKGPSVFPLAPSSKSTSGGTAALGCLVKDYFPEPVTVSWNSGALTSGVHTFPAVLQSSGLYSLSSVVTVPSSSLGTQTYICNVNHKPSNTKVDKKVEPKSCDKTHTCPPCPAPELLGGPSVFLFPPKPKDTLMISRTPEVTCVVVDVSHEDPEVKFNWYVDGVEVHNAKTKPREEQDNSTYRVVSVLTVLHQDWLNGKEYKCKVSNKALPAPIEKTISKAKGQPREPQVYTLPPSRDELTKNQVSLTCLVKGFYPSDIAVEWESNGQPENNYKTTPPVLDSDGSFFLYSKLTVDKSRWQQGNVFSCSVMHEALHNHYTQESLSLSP
light: DIVMTQSPLSLPVTPGEPASISCQASESLVHSNRNTYLHWYLQKPGQSPQLLIYKVSNRFSGVPDRFSGSGSGTDFTLKISRVEAEDVGVYYCSQNTHVPPTFGQGTKVEIERTVAAPSVFIFPPSDEQLKSGTASVVCLLNNFYPREAKVQWKVDNALQSGNSQESVTEQDSKDSTYSLSSTLTLSKADYEKHKVYACEVTHQGLSSPVTKSFNRGEC
notes: also called Ho Ab Y296_09D
B2: GpH7-B3 variant H268_19Q/GpL16-k0 (antibody, human IgG1, kappa)
heavy: not shown
light: DIVMTQSPLSLPVTPGEPASISCQASESLVHSNRNTYLHWYLQKPGQSPQLLIYKVSNRFSGVPDRFSGSGSGTDFTLKISRVEAEDVGVYYCSQNTHVPPTFGQGTKVEIERTVAAPSVFIFPPSDEQLKSGTASVVCLLNNFYPREAKVQWKVDNALQSGNSQESVTEQDSKDSTYSLSSTLTLSKADYEKHKVYACEVTHQGLSSPVTKSFNRGEC
notes: also called Ho Ab H268_19Q
B3: GpH7-B3 variant E333_09D/GpL16-k0 (antibody, human IgG1, kappa)
heavy: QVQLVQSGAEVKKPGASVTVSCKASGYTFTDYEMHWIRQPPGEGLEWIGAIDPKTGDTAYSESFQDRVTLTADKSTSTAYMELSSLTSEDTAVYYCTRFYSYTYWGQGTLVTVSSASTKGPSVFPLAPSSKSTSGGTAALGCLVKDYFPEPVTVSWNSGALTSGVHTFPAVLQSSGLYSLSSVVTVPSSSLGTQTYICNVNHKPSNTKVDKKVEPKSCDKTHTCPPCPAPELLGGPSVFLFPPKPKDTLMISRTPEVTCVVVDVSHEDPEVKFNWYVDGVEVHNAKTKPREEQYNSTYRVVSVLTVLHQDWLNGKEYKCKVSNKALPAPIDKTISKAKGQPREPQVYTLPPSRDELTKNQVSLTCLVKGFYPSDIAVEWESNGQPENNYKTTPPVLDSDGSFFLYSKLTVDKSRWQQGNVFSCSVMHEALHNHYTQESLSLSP
light: DIVMTQSPLSLPVTPGEPASISCQASESLVHSNRNTYLHWYLQKPGQSPQLLIYKVSNRFSGVPDRFSGSGSGTDFTLKISRVEAEDVGVYYCSQNTHVPPTFGQGTKVEIERTVAAPSVFIFPPSDEQLKSGTASVVCLLNNFYPREAKVQWKVDNALQSGNSQESVTEQDSKDSTYSLSSTLTLSKADYEKHKVYACEVTHQGLSSPVTKSFNRGEC
notes: also called Ho Ab E333_09D
B4: GpH7-B3 variant A330_16H/GpL16-k0 (antibody, human IgG1, kappa)
heavy: not shown
light: DIVMTQSPLSLPVTPGEPASISCQASESLVHSNRNTYLHWYLQKPGQSPQLLIYKVSNRFSGVPDRFSGSGSGTDFTLKISRVEAEDVGVYYCSQNTHVPPTFGQGTKVEIERTVAAPSVFIFPPSDEQLKSGTASVVCLLNNFYPREAKVQWKVDNALQSGNSQESVTEQDSKDSTYSLSSTLTLSKADYEKHKVYACEVTHQGLSSPVTKSFNRGEC
notes: also called Ho Ab A330_16H
B5: GpH7-B3 variant I336_08L/GpL16-k0 (antibody, human IgG1, kappa)
heavy: not shown
light: DIVMTQSPLSLPVTPGEPASISCQASESLVHSNRNTYLHWYLQKPGQSPQLLIYKVSNRFSGVPDRFSGSGSGTDFTLKISRVEAEDVGVYYCSQNTHVPPTFGQGTKVEIERTVAAPSVFIFPPSDEQLKSGTASVVCLLNNFYPREAKVQWKVDNALQSGNSQESVTEQDSKDSTYSLSSTLTLSKADYEKHKVYACEVTHQGLSSPVTKSFNRGEC
notes: also called Ho Ab I336_08L
B6: GpH7-B3 variant K326_19Q/GpL16-k0 (antibody, human IgG1, kappa)
heavy: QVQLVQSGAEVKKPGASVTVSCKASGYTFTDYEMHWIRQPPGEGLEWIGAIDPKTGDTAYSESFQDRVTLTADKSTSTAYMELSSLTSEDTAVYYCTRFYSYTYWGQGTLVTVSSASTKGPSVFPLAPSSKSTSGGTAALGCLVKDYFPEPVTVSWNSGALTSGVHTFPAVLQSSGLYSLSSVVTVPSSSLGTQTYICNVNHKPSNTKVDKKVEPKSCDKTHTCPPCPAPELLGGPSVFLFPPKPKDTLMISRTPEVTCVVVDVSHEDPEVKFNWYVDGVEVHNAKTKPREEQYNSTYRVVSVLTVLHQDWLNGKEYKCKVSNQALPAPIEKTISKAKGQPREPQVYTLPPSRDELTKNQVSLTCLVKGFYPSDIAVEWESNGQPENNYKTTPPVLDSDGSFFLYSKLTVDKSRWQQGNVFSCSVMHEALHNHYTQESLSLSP
light: DIVMTQSPLSLPVTPGEPASISCQASESLVHSNRNTYLHWYLQKPGQSPQLLIYKVSNRFSGVPDRFSGSGSGTDFTLKISRVEAEDVGVYYCSQNTHVPPTFGQGTKVEIERTVAAPSVFIFPPSDEQLKSGTASVVCLLNNFYPREAKVQWKVDNALQSGNSQESVTEQDSKDSTYSLSSTLTLSKADYEKHKVYACEVTHQGLSSPVTKSFNRGEC
notes: also called Ho Ab K326_19Q
B7: GpH7-B3 variant H268_18N/GpL16-k0 (antibody, human IgG1, kappa)
heavy: not shown
light: DIVMTQSPLSLPVTPGEPASISCQASESLVHSNRNTYLHWYLQKPGQSPQLLIYKVSNRFSGVPDRFSGSGSGTDFTLKISRVEAEDVGVYYCSQNTHVPPTFGQGTKVEIERTVAAPSVFIFPPSDEQLKSGTASVVCLLNNFYPREAKVQWKVDNALQSGNSQESVTEQDSKDSTYSLSSTLTLSKADYEKHKVYACEVTHQGLSSPVTKSFNRGEC
notes: also called Ho Ab H268_18N
B8: GpH7-B3 variant K326_10E/GpL16-k0 (antibody, human IgG1, kappa)
heavy: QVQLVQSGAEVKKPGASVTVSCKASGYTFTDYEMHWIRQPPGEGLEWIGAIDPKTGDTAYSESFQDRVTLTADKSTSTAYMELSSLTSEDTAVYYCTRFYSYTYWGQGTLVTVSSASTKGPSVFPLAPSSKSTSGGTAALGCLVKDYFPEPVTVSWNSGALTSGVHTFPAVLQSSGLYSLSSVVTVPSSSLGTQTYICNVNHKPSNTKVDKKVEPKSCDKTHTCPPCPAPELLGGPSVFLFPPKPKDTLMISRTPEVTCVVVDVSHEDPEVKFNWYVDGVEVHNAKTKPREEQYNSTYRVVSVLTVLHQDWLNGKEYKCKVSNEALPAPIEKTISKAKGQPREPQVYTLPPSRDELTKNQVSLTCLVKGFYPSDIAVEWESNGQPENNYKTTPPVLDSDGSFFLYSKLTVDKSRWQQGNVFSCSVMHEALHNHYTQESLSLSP
light: DIVMTQSPLSLPVTPGEPASISCQASESLVHSNRNTYLHWYLQKPGQSPQLLIYKVSNRFSGVPDRFSGSGSGTDFTLKISRVEAEDVGVYYCSQNTHVPPTFGQGTKVEIERTVAAPSVFIFPPSDEQLKSGTASVVCLLNNFYPREAKVQWKVDNALQSGNSQESVTEQDSKDSTYSLSSTLTLSKADYEKHKVYACEVTHQGLSSPVTKSFNRGEC
notes: also called Ho Ab K326_10E
B9: GpH7-B3 variant G236_03V/GpL16-k0 (antibody, human IgG1, kappa)
heavy: not shown
light: DIVMTQSPLSLPVTPGEPASISCQASESLVHSNRNTYLHWYLQKPGQSPQLLIYKVSNRFSGVPDRFSGSGSGTDFTLKISRVEAEDVGVYYCSQNTHVPPTFGQGTKVEIERTVAAPSVFIFPPSDEQLKSGTASVVCLLNNFYPREAKVQWKVDNALQSGNSQESVTEQDSKDSTYSLSSTLTLSKADYEKHKVYACEVTHQGLSSPVTKSFNRGEC
notes: also called Ho Ab G236_03V
B10: GpH7-B3 variant K334_04F/GpL16-k0 (antibody, human IgG1, kappa)
heavy: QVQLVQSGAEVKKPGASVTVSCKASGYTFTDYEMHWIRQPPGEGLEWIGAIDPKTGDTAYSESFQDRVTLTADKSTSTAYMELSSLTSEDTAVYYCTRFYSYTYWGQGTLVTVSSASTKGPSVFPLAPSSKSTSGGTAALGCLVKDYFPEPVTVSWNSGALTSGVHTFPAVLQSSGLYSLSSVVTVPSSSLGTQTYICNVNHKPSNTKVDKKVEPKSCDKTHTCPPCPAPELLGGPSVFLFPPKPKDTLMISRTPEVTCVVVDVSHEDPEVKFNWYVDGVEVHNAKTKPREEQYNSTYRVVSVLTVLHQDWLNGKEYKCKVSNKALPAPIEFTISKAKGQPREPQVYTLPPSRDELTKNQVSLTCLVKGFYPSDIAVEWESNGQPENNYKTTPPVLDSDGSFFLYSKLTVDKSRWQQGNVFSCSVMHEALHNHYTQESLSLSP
light: DIVMTQSPLSLPVTPGEPASISCQASESLVHSNRNTYLHWYLQKPGQSPQLLIYKVSNRFSGVPDRFSGSGSGTDFTLKISRVEAEDVGVYYCSQNTHVPPTFGQGTKVEIERTVAAPSVFIFPPSDEQLKSGTASVVCLLNNFYPREAKVQWKVDNALQSGNSQESVTEQDSKDSTYSLSSTLTLSKADYEKHKVYACEVTHQGLSSPVTKSFNRGEC
notes: also called Ho Ab K334_04F
B11: GpH7-B3 variant K334_08L/GpL16-k0 (antibody, human IgG1, kappa)
heavy: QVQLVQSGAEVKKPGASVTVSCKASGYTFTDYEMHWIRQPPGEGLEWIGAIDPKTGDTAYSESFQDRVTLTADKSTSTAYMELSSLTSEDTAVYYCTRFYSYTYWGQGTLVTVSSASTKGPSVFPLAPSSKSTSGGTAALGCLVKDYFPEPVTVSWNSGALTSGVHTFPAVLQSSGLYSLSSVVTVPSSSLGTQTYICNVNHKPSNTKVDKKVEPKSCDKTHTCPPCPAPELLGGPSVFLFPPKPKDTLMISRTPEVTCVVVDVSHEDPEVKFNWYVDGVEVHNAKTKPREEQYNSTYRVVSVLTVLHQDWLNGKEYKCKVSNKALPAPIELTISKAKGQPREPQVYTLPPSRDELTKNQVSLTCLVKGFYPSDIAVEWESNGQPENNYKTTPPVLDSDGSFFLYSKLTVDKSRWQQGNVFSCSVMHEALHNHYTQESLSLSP
light: DIVMTQSPLSLPVTPGEPASISCQASESLVHSNRNTYLHWYLQKPGQSPQLLIYKVSNRFSGVPDRFSGSGSGTDFTLKISRVEAEDVGVYYCSQNTHVPPTFGQGTKVEIERTVAAPSVFIFPPSDEQLKSGTASVVCLLNNFYPREAKVQWKVDNALQSGNSQESVTEQDSKDSTYSLSSTLTLSKADYEKHKVYACEVTHQGLSSPVTKSFNRGEC
notes: also called Ho Ab K334_08L
B12: GpH7-B3 variant Y296_16H/GpL16-k0 (antibody, human IgG1, kappa)
heavy: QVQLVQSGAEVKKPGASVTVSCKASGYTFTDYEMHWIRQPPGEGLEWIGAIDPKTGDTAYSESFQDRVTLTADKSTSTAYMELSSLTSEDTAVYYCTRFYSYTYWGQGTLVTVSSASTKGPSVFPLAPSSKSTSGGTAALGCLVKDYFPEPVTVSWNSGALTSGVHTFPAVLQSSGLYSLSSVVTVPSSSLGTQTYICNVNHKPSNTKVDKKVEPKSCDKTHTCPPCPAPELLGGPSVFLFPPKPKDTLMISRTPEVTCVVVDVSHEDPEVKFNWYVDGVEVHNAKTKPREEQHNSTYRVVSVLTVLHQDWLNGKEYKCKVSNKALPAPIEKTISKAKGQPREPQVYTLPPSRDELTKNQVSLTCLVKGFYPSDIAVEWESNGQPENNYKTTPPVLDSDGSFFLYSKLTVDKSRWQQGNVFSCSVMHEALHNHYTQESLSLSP
light: DIVMTQSPLSLPVTPGEPASISCQASESLVHSNRNTYLHWYLQKPGQSPQLLIYKVSNRFSGVPDRFSGSGSGTDFTLKISRVEAEDVGVYYCSQNTHVPPTFGQGTKVEIERTVAAPSVFIFPPSDEQLKSGTASVVCLLNNFYPREAKVQWKVDNALQSGNSQESVTEQDSKDSTYSLSSTLTLSKADYEKHKVYACEVTHQGLSSPVTKSFNRGEC
notes: also called Ho Ab Y296_16H
B13: GpH7-B3 variant H268_02A/GpL16-k0 (antibody, human IgG1, kappa)
heavy: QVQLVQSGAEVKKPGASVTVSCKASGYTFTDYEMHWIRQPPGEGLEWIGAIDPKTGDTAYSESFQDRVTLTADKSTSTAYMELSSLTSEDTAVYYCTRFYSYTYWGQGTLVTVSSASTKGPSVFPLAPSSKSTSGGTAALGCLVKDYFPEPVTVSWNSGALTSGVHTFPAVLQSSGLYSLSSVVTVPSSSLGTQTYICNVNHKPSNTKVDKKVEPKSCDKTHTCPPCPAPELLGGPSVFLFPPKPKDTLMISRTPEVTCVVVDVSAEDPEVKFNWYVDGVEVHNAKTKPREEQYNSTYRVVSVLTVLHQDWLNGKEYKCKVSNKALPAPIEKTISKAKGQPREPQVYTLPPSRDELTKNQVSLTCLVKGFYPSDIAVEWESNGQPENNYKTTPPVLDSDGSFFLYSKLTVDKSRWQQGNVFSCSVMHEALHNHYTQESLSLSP
light: DIVMTQSPLSLPVTPGEPASISCQASESLVHSNRNTYLHWYLQKPGQSPQLLIYKVSNRFSGVPDRFSGSGSGTDFTLKISRVEAEDVGVYYCSQNTHVPPTFGQGTKVEIERTVAAPSVFIFPPSDEQLKSGTASVVCLLNNFYPREAKVQWKVDNALQSGNSQESVTEQDSKDSTYSLSSTLTLSKADYEKHKVYACEVTHQGLSSPVTKSFNRGEC
notes: also called Ho Ab H268_02A
B14: GpH7-B3 variant G236_07I/GpL16-k0 (antibody, human IgG1, kappa)
heavy: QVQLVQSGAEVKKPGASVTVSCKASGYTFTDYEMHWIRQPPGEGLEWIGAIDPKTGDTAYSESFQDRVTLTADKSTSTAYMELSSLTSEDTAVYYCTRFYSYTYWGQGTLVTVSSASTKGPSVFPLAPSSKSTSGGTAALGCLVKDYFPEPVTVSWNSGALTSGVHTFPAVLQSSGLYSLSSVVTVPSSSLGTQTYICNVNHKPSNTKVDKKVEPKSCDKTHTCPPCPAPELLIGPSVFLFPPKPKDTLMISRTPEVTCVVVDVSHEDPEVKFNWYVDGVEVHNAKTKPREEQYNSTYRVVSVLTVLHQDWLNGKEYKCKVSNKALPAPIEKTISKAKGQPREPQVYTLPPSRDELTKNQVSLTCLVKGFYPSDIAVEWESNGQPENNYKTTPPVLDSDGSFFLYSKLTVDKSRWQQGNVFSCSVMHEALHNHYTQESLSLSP
light: DIVMTQSPLSLPVTPGEPASISCQASESLVHSNRNTYLHWYLQKPGQSPQLLIYKVSNRFSGVPDRFSGSGSGTDFTLKISRVEAEDVGVYYCSQNTHVPPTFGQGTKVEIERTVAAPSVFIFPPSDEQLKSGTASVVCLLNNFYPREAKVQWKVDNALQSGNSQESVTEQDSKDSTYSLSSTLTLSKADYEKHKVYACEVTHQGLSSPVTKSFNRGEC
notes: also called Ho Ab G236_07I
B15: GpH7-B3 variant I336_06M/GpL16-k0 (antibody, human IgG1, kappa)
heavy: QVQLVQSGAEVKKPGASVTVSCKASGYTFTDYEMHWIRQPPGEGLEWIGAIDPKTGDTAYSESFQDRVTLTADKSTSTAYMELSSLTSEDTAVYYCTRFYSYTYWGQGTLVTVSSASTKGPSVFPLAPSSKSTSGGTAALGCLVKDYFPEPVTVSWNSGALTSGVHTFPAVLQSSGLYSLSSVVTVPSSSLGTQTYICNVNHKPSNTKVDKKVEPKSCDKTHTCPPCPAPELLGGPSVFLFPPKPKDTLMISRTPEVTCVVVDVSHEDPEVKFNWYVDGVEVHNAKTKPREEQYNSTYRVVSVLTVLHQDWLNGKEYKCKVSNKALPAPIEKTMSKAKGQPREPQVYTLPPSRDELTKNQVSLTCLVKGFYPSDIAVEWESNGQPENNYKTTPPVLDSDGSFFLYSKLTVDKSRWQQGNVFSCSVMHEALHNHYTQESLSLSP
light: DIVMTQSPLSLPVTPGEPASISCQASESLVHSNRNTYLHWYLQKPGQSPQLLIYKVSNRFSGVPDRFSGSGSGTDFTLKISRVEAEDVGVYYCSQNTHVPPTFGQGTKVEIERTVAAPSVFIFPPSDEQLKSGTASVVCLLNNFYPREAKVQWKVDNALQSGNSQESVTEQDSKDSTYSLSSTLTLSKADYEKHKVYACEVTHQGLSSPVTKSFNRGEC
notes: also called Ho Ab I336_06M
B16: GpH7-B3 variant K326_06M/GpL16-k0 (antibody, human IgG1, kappa)
heavy: not shown
light: DIVMTQSPLSLPVTPGEPASISCQASESLVHSNRNTYLHWYLQKPGQSPQLLIYKVSNRFSGVPDRFSGSGSGTDFTLKISRVEAEDVGVYYCSQNTHVPPTFGQGTKVEIERTVAAPSVFIFPPSDEQLKSGTASVVCLLNNFYPREAKVQWKVDNALQSGNSQESVTEQDSKDSTYSLSSTLTLSKADYEKHKVYACEVTHQGLSSPVTKSFNRGEC
notes: also called Ho Ab K326_06M

In this experiment the target is FcγRIIa H (human, UniProt P12318 34-217). Description: SPR Biacore, captured antibody, FcγR analyte; vs GpH7-B3/GpL16-k0 = 100. For orientation: In SPR one partner is held on a chip, and binding of the other changes the refractive index at the surface.
Chain of FcγRIIa H (P12318 34-217): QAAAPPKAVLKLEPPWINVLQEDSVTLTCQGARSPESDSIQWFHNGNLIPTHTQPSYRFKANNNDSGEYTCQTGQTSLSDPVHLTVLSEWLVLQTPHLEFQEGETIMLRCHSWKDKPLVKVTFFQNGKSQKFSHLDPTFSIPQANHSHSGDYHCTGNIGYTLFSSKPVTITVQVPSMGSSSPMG
In the case of B1, the Ho/Con_2aH was 99.9 % of control. Next, B2: 102 % of control; B3: 103 % of control; B4: 101 % of control. Next, B5: 101 % of control; B6: 100 % of control.

On to B7, for which the Ho/Con_2aH is 110 % of control. For the molecule B8, the Ho/Con_2aH was 101 % of control. The same measure for B9: 111 % of control; for B10: 103 % of control; for B11: 103 % of control.

As for B12, the Ho/Con_2aH is 85.7 % of control. The same measure for B13: 111 % of control; for B14: 101 % of control. Next, B15: 100 % of control. The same measure for B16: 101 % of control.
